Data on one molecule can be found in US20100056764A1 (Novo Nordisk, published 2010).

The target in experiment [1] is T1, human NKG2D (hNKG2D) on the cell surface (human, UniProt P26718 1-216).
T1 construct: Carried by BaF/3 cells co-transfected with full-length NKG2D and DAP10, or naturally by human NK, CD8+ T and gamma-delta T cells (PBMC, whole blood); also called cell-surface NKG2D; NKG2D- and DAP10-expressing BaF/3 cells
T1 chain: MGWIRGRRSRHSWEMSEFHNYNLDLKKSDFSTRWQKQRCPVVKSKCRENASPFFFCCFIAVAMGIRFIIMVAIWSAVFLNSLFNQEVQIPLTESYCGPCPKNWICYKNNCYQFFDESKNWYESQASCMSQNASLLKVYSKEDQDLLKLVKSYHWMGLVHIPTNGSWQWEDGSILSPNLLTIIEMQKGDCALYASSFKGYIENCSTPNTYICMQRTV
The experiment can be described thus: flow cytometry blocking assay on NKG2D/DAP10-expressing BaF/3 cells: pre-incubation with the antibody, then 1 µg MICA-mFc; y axis % remaining MICA-Fc binding. Here is the method: Flow cytometry assays—MICA blockade. […] The cells were then analysed on a B&D FACSArray flow cytometer. The degree of reduction of MICA binding by preincubation was analysed as MFI (mean fluorescence intensity) of binding with pre-incubation in % of binding of MICA without preincubation.
For orientation: In flow cytometry, cells or beads pass a laser one at a time.

Experiment [2] has as its target T1, human NKG2D (hNKG2D) on the cell surface. Description: flow cytometry, dose-response on NKG2D- and DAP10-expressing BaF/3 cells, y axis % of max binding.
Experiment [3] has the same target. Description: cell-based or functional assay.
The next experiment concerns the target T2, mouse NKG2D (mouse, UniProt O54709 1-232, limits assumed).
T2 construct: The assay format for the cross-reactivity test is not described
T2 sequence (looked up): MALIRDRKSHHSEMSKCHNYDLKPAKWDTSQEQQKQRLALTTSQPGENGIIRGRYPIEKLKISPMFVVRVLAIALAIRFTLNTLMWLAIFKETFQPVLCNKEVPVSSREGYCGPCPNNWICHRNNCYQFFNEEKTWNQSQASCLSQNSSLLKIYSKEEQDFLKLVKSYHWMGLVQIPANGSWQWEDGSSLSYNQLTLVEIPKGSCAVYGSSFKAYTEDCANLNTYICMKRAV
Description: not described.

The target in another experiment is T3, pig NKG2D (pig, UniProt Q9GLF5 1-214, limits assumed).
T3 construct: The assay format for the cross-reactivity test is not described
T3 sequence (looked up): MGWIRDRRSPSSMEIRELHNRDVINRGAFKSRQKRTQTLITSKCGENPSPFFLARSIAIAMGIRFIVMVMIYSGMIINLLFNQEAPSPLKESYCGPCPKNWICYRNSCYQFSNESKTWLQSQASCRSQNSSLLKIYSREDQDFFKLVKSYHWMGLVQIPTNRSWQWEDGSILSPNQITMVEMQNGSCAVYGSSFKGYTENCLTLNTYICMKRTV
Description: not described.

For a further experiment, the target named is T4, rat NKG2D (rat, UniProt O70215 1-215, limits assumed).
T4 construct: The assay format for the cross-reactivity test is not described
T4 sequence (looked up): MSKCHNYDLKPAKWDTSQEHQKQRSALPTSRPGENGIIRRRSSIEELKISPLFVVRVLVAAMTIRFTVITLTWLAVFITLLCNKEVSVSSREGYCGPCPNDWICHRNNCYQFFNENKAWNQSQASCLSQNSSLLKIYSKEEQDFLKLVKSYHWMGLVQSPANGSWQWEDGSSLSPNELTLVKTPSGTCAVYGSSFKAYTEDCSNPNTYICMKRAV
The experiment can be described thus: not described.

The target in experiment [4] is T5, cynomolgous monkey NKG2D on NK, CD8+ T and gamma-delta T cells (cynomolgous monkey (Macaca fascicularis), UniProt P61252 1-216).
T5 construct: whole, on cells; Target on cynomolgous PBMC and whole blood cells; also called cynomologous NKG2D; cyno NKG2D
T5 sequence (looked up): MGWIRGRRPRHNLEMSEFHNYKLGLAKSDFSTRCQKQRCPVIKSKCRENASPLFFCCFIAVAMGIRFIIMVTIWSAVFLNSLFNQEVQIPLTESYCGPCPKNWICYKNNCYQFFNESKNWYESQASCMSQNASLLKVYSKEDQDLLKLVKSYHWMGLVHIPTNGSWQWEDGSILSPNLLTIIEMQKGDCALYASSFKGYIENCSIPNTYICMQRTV
Description: flow cytometry on cynomolgous PBMC, NK cells gated; the legend names 16F16 purified from the original hybridoma. The procedure: Flow cytometry assay—man and monkey PBMC. Perifieral blood mononuclear cells (PMBCs) were isolated from humans, or from Cynomologous or Rhesus monkey. All animal work were performed according to Danish National Research Council guidelines.

B1: 16F16, fully human anti-hNKG2D monoclonal antibody, recombinantly expressed as IgG4 isotype (antibody, V domains shown)
VH: EVQLVESGGGLVKPGGSLRLSCAASGFTFSSYSMNWVRQAPGKGLEWVSSITSSSSYIYYADSVKGRFTISRDNAKNSLYLQMNSLRAEDTAVYYCARDRRYFDWFPLDYRGQGTLVTVSS
VL: DIQMTQSPSSLSASVGDRVTITCRASQGISSWLAWYQQKPEKAPKSLIYAASSLQSGVPSRFSGSGSGTDFTLTISSLQPEDFATYYCQQYNGYPYTFGQGTKLEIKR
notes: also called 16F16 IgG4; 16F16 (IgG4)
As for B1, in experiment [1], the “IC50 (read off the curve)” value was about 0.02 nM. The EC50 (read off the curve) (usually the concentration at which the effect is half-maximal) in experiment [2] was about 0.03 nM. For the same molecule, the “EC50 (µg/ml), inhibition of NK cell killing of MICA-expressing target cells (51Cr release)” value in experiment [3] turned out to be 0.14 µg/mL. Also, in experiment [3], the “EC50 (µg/ml), inhibition of NK cell killing of ULPB3-expressing target cells (51Cr release)” value is 0.35 µg/mL. In addition, the binding result with mouse NKG2D is listed as “no binding”; with pig NKG2D it was “no binding”; with rat NKG2D it was “no binding”; in experiment [4] it was “binds”.
